From the supplement of paper PMC11246515
± gives the standard deviation of the averaged measurements.

Experiment: total protein half-life in vivo (active degradation + dilution); higher = more stable protein
[1] = E. coli NCM3722 delta-clpP, growth: N-lim chemostat, doubling time 6 h
[2] = E. coli NCM3722 delta-hslV, growth: N-lim chemostat, doubling time 6 h
[3] = E. coli NCM3722 delta-smpB, growth: N-lim chemostat, doubling time 6 h
[4] = wild type E. coli NCM3722, growth: C-lim chemostat, doubling time 3 h
[5] = wild type E. coli NCM3722, growth: C-lim chemostat, doubling time 6 h
[6] = wild type E. coli NCM3722, growth: C-lim chemostat, doubling time 12 h
[7] = wild type E. coli NCM3722, growth: N-lim chemostat, doubling time 6 h
[8] = wild type E. coli NCM3722, growth: P-lim chemostat, doubling time 6 h
[9] = wild type E. coli NCM3722, growth: P-lim chemostat, doubling time 12 h
[10] = E. coli NCM3722 delta-clpP delta-lon delta-hslV, growth: N-lim chemostat, doubling time 6 h
[11] = E. coli NCM3722 delta-lon, growth: N-lim chemostat, doubling time 6 h
[12] = wild type E. coli NCM3722, growth: N-lim chemostat, doubling time 12 h

Sequence | total protein half-life in vivo [1] [h] | total protein half-life in vivo [2] [h] | total protein half-life in vivo [3] [h] | total protein half-life in vivo [4] [h] | total protein half-life in vivo [5] [h] | total protein half-life in vivo [6] [h] | total protein half-life in vivo [7] [h] | total protein half-life in vivo [8] [h] | total protein half-life in vivo [9] [h] | total protein half-life in vivo [10] [h] | total protein half-life in vivo [11] [h] | total protein half-life in vivo [12] [h]
MQHETKMENQSWLKKLARRLGPGHVVNLCFIVVLLFSTLLTWREVVVLEDAYISSQRNHLENVANALDKHLQYNVDKLIFLRNGMREALVAPLDFTSLRDAVTEFEQHRDEHAWKIELNRRRTLPVNGVSDALVSEGNLLSRENESLDNEITAALEVGYLLRLAHNSSSMVEQAMYVSRAGFYVSTQPTLFTRNVPTRYYGYVTQPWFIGHSQRENRHRAVRWFTSQPEHASNTEPQVTVSVPVDSNNYWYGVLGMSIPVRTMQQFLRNAIDKNLDGEYQLYDSKLRFLTSSNPDHPTGNIFDPRELALLAQAMEHDTRGGIRMDSRYVSWERLDHFDGVLVRVHTLSEGVRGDFGSISIALTLLWALFTTMLLISWYVIRRMVSNMYVLQSSLQWQAWHDTLTRLYNRGALFEKARPLAKLCQTHQHPFSVIQVDLDHFKAINDRFGHQAGDRVLSHAAGLISSSLRAQDVAGRVGGEEFCVILPGASLTEAAEVAERIRLKLNEKEMLIAKSTTIRISASLGVSSSEETGDYDFEQLQSLADRRLYLAKQAGRNRVFASDNA | 7.2 ± 0.57 | 6.48 ± 0.5 | 5.94 ± 0.3 | 3.34 ± 0.062 | 6.39 ± 0.087 | 12.3 ± 0.47 | 6.01 ± 0.53 | 6.56 ± 0.22 | 12.2 ± 0.31 | – | – | –
MKNIKFSLAWQILFAMVLGILLGSYLHYHSDSRDWLVVNLLSPAGDIFIHLIKMIVVPIVISTLVVGIAGVGDAKQLGRIGAKTIIYFEVITTVAIILGITLANVFQPGAGVDMSQLATVDISKYQSTTEAVQSSSHGIMGTILSLVPTNIVASMAKGEMLPIIFFSVLFGLGLSSLPATHREPLVTVFRSISETMFKVTHMVMRYAPVGVFALIAVTVANFGFSSLWPLAKLVLLVHFAILFFALVVLGIVARLCGLSVWILIRILKDELILAYSTASSESVLPRIIEKMEAYGAPVSITSFVVPTGYSFNLDGSTLYQSIAAIFIAQLYGIDLSIWQEIILVLTLMVTSKGIAGVPGVSFVVLLATLGSVGIPLEGLAFIAGVDRILDMARTALNVVGNALAVLVIAKWEHKFDRKKALAYEREVLGKFDKTADQ | 2.63 | – | – | 2.87 | 4.95 | > 16 | – | – | 6.24 | – | – | –
MADNKPELQRGLEARHIELIALGGTIGVGLFMGAASTLKWAGPSVLLAYIIAGLFVFFIMRSMGEMLFLEPVTGSFAVYAHRYMSPFFGYLTAWSYWFMWMAVGISEITAIGVYVQFWFPEMAQWIPALIAVALVALANLAAVRLYGEIEFWFAMIKVTTIIVMIVIGLGVIFFGFGNGGQSIGFSNLTEHGGFFAGGWKGFLTALCIVVASYQGVELIGITAGEAKNPQVTLRSAVGKVLWRILIFYVGAIFVIVTIFPWNEIGSNGSPFVLTFAKIGITAAAGIINFVVLTAALSGCNSGMYSCGRMLYALAKNRQLPAAMAKVSRHGVPVAGVAVSIAILLIGSCLNYIIPNPQRVFVYVYSASVLPGMVPWFVILISQLRFRRAHKAAIASHPFRSILFPWANYVTMAFLICVLIGMYFNEDTRMSLFVGIIFMLAVTAIYKVFGLNRHGKAHKLEE | – | 6.01 ± 0.26 | 5.99 ± 1.1 | – | 6.82 ± 0.17 | 10.7 | 5.01 | > 8 | 12.7 ± 2.9 | 6.95 | 5.41 ± 0.71 | 11.7
MPTKPPYPREAYIVTIEKGKPGQTVTWYQLRADHPKPDSLISEHPTAQEAMDAKKRYEDPDKE [P0AAN5] | 5.03 ± 0.57 | 5.08 ± 0.48 | 4.72 ± 0.16 | 3.69 | 3.08 | 7.61 | 4.1 ± 0.042 | 5.3 | 9.63 ± 1.6 | – | 5.38 ± 1.4 | 8.6 ± 1.8
MALWGGRFTQAADQRFKQFNDSLRFDYRLAEQDIVGSVAWSKALVTVGVLTAEEQAQLEEALNVLLEDVRARPQQILESDAEDIHSWVEGKLIDKVGQLGKKLHTGRSRNDQVATDLKLWCKDTVSELLTANRQLQSALVETAQNNQDAVMPGYTHLQRAQPVTFAHWCLAYVEMLARDESRLQDALKRLDVSPLGCGALAGTAYEIDREQLAGWLGFASATRNSLDSVSDRDHVLELLSAAAIGMVHLSRFAEDLIFFNTGEAGFVELSDRVTSGSSLMPQKKNPDALELIRGKCGRVQGALTGMMMTLKGLPLAYNKDMQEDKEGLFDALDTWLDCLHMAALVLDGIQVKRPRCQEAAQQGYANATELADYLVAKGVPFREAHHIVGEAVVEAIRQGKPLEDLPLSELQKFSQVIDEDVYPILSLQSCLDKRAAKGGVSPQQVAQAIAFAQARLG | 4 ± 0.055 | 3.462 ± 0.011 | 3.65 ± 0.28 | 3.02 ± 0.055 | 5.59 ± 0.33 | 10.5 ± 0.22 | 3.77 ± 0.17 | 5.29 ± 0.76 | 11 ± 0.68 | 4.96 ± 1 | 4.05 ± 0.2 | 5.76 ± 0.05
MSNQFGDTRIDDDLTLLSETLEEVLRSSGDPADQKYVELKARAEKALDDVKKRVSQASDSYYYRAKQAVYRADDYVHEKPWQGIGVGAAVGLVLGLLLARR [P0AEH5] | – | 6.88 ± 0.34 | 5.64 ± 0.42 | – | 6.46 ± 0.78 | 10.1 ± 0.52 | 5.99 ± 0.7 | 5.16 ± 1.5 | 12.6 ± 0.4 | 6.419 ± 0.022 | > 8 | 14.8 ± 0.89
MQGKALQDFVIDKIDDLKGQDIIALDVQGKSSITDCMIICTGTSSRHVMSIADHVVQESRAAGLLPLGVEGENSADWIVVDLGDVIVHVMQEESRRLYELEKLWS [P0AAT6] | 3.63 ± 1.7 | 2.21 ± 0.063 | 2.65 ± 0.19 | 2.6 ± 0.59 | 3.58 | > 16 | 2.72 | 2.2 | 4.01 | 6.28 ± 1.2 | 5.5 ± 0.84 | 3.51 ± 0.17
